Data published in patent publication US11464867B2, “Multimeric elastin-like polypeptides” (University of Southern California, priority 2018, dated 2022).
Values joined by “and” are separate entries in the source; they are usually repeats but may differ in a detail not shown here. Equal entries are not always repeated. “Also recorded” adds a separate entry of the source.

How the values were obtained:
[1] = Multivariate fit of the phase diagram of ELP monoblock copolymers; format: physicochemical; conditions: for Tc: critical transition temperature; for n: dependence on inverse of ELP length; for m: dependence on natural logarithm of concentration; for K: interaction term between length and concentration
Source text: The Tt of the ELP component can be modified by varying ELP chain length, as the Tt generally increases with decreasing MW. For polypeptides having a molecular weight >100,000, the hydrophobicity scale developed by Urry et al. (PCT/US96/05186, which is hereby incorporated by reference in its entirety) is preferred for predicting the approximate Tt of a specific ELP sequence. However, in some embodiments, ELP component length can be kept relatively small, while maintaining a target Tt, by incorporating a larger fraction of hydrophobic guest residues (e.g., amino acid residues having hydrophobic side chains) in the ELP sequence. For polypeptides having a molecular weight <100,000, the Tt may be predicted or determined by the following function:
[formula] where Tc is a critical transition temperature, m is the dependence on the natural logarithm of concentration, n is the dependence on the inverse of the ELP length l, and k is an interaction term between length and concentration.

[2] = CsA encapsulation by two-phase solvent evaporation, RP-HPLC; format: physicochemical; conditions: for CsA loading compared with a comparator: in words
Description: The mixture was incubated at 37° C. and samples were collected at different time points up to 48 h.
This was followed by high-speed centrifugation and filtration to remove the excess insoluble drug. […] The mobile phase flow rate was set to 1.0 ml/min. The linear gradient from 20% to 95% of methanol was applied from 0 to 5 min. Then the mobile phase was changed to 95% methanol isocratic flow for 10 min.
This was followed by high-speed centrifugation and filtration to remove the excess insoluble drug. The loading ratio was then determined by reversed-phase high-performance liquid chromatography (RP-HPLC) analysis method.
The drug loading capability of 2nd and 3rd generation carriers were also tested using the same encapsulation method detailed above employing the method of Shi, et al., 2013.

[3] = SEC / Multi-Angle Static Light Scattering (MALS) of CA192 fractions; format: physicochemical
Description: The hydrodynamic radius (Rh) of both the loaded and unloaded fusion protein, along with plain A192, was measured via dynamic light scattering (DLS) using a DynaPro Plate Reader II from Wyatt Technology. Before the DLS measurement, solutions were filtered through […] pore size filters. The concentration of each solution was then adjusted to 20 μM. 60 μL from each sample was pipetted into three different wells on the plate reader and covered by 15 μL mineral oil each to avoid solvent evaporation. Centrifugation was then performed to remove air bubbles. […] Based on this DLS method, Applicants performed a stability assay to explore the stability of the fusion protein by measuring the mean Rh shift during incubation at physiological temperature. Briefly, the fusion solution was incubated at 37° C. for different periods of time up to 48 h and the mean Rh of CA192 at these different time points was measured with DLS. […] There might be some slight aggregation occurring in the CA192 protein solution. […] To determine if this was the case, further separation was conducted with size exclusion chromatography (SEC). This process was performed at 4° C. using a Hiload 26/600 column (26×600 mm, particle size 24-44 μM). […] Fragments with absorption above 10 mAu were collected and concentrated with a Spin-X concentrator (pore size 10 kDa). Two fractions were observed after SEC separation (FIG. 5C). […] (FIG. 5D) Through measuring the CA192 concentration of both fractions, Applicants determined that 20.8% by mass in solution is represented by the multimerized particles. Multi-Angle static Light Scattering (MALS) was then applied to evaluate the aggregation and oligomeric state of CA192. […] Thus, it was concluded that the CA192 fusion protein is mostly maintained as dimerized nanoparticles with a 6.5 nm hydrodynamic radius.
To further evaluate the aggregation and oligomeric state of each fraction, Multi-Angle Static Light Scattering (MALS) was then used to measure the molecular weight of both peaks. […] Similarly, fraction 1 was identified as aggregated form. […]

[4] = Phase transition temperature by optical density (UV-Vis, 350 nm) versus temperature; format: physicochemical; conditions: for Transition temperature (Tt): at 25 μM, 1° C./min; for Slope, m: fit Tt = b - m Log10[CELP]; for Intercept, b: intercept at 1 μM
Description: The temperature with the maximum positive slope was defined as the phase transition temperature for each condition. (FIG. 2B) The concentration-temperature phase diagram was determined for both ELPs, and fit to the following equation: Tt=b−m Log10[CELP].
Both ELPs at different concentrations (5 μM to 100 μM) were subject to a precisely controlled temperature increase from 25 to 75° C. at a rate of 1° C./min. The Tt of ELPs is defined as the temperature at which the first derivative of the optical density with respect to the temperature reaches a maximum.

[5] = Dynamic light scattering (DLS) hydrodynamic radius and stability; format: physicochemical
Description: FIGS. 5A-5D: CA192 (SEQ ID NO: 3) has a good stability in terms of hydrodynamic radius. There are two fractions present in the CA192 (SEQ ID NO: 3) solution: an aggregated form and dimeric form. A dimerized form has similar hydrodynamic radius, Rh as A192. […] Drug-loaded CA192 (SEQ ID NO: 3) has a mean Rh of 64.5±0.5 nm (p<0.05). […] (FIG. 5C) Size Exclusion Chromatography (SEC) was conducted to fractionate CA192 (SEQ ID NO: 3) depending on their particle size. Two fractions were observed. […] In contrast, the fraction 1 contains a mixture of larger aggregates.
The hydrodynamic radius (Rh) of both the loaded and unloaded fusion protein, along with plain A192, was measured via dynamic light scattering (DLS) using a DynaPro Plate Reader II from Wyatt Technology. Before the DLS measurement, solutions were filtered through […] pore size filters. The concentration of each solution was then adjusted to 20 μM. 60 μL from each sample was pipetted into three different wells on the plate reader and covered by 15 μL mineral oil each to avoid solvent evaporation. Centrifugation was then performed to remove air bubbles. […] Based on this DLS method, Applicants performed a stability assay to explore the stability of the fusion protein by measuring the mean Rh shift during incubation at physiological temperature. Briefly, the fusion solution was incubated at 37° C. for different periods of time up to 48 h and the mean Rh of CA192 at these different time points was measured with DLS. […] There might be some slight aggregation occurring in the CA192 protein solution. […] To determine if this was the case, further separation was conducted with size exclusion chromatography (SEC). This process was performed at 4° C. using a Hiload 26/600 column (26×600 mm, particle size 24-44 μM). […] Fragments with absorption above 10 mAu were collected and concentrated with a Spin-X concentrator (pore size 10 kDa). […] (FIG. 5D) Through measuring the CA192 concentration of both fractions, Applicants determined that 20.8% by mass in solution is represented by the multimerized particles. […]

human albumin = human albumin (Homo sapiens, UniProt P02768); assay: Competition of CsA-loaded CA192 against human albumin (1 mM, 37° C.); format: in vitro ADME; conditions: 48 h
Description: Per molecule of protein, CA192 (SEQ ID NO: 3) binds 10× more drug than albumin. […] The mixture was incubated at 37° C. and samples were collected at different time points up to 48 h. The ELP phase separation was induced to purify CA192 (SEQ ID NO: 3) from the mixture with Albumin, which was—followed by RP-HPLC analysis. (FIG. 4C) Instead of albumin, lipoproteins in the plasma, mainly high-(HDL) and low-(LDL) density lipoprotein, predominantly bind to cyclosporine in the plasma. Thus, CA192-CsA was also tested against mouse plasma over a period of 48 hr.
Samples were collected from the dialysis cassette at different time points between 0 and 192 h and analyzed by RP-HPLC. […] The same drug release experiment was performed using CA192 dimer obtained via SEC. Dialysis was performed against PBS at 37° C. (FIG. 3B) and 4° C. (FIG. 3C). To further validate the release profile, as a control group, with the same encapsulation method, human albumin was explored to load CsA. […] The mixture was incubated at 37° C. and samples were collected at different time points up to 48 h. Another round of […] was performed to purify CA192 from the mixture, followed by RP-HPLC analysis. […] Similar to this competition method against albumin, 300 μM CA192-CsA in PBS was diluted 1:1 in mouse plasma to achieve a final concentration of 150 μM. […]

HeLa cells = assay: HeLa cell uptake, co-localization with lysosomes (confocal microscopy); format: cell-based; conditions: 30 μM rhodamine-labeled ELP; 120 min; LysoTracker Green
Description: Lysosomes were labeled by LysoTracker Green® having the structure:
In order to further validate the potential efficacy of CA192 working as a potent drug binding domain, an in vitro cell uptake study was performed. Briefly, CA192 and A192 was labeled with rhodamine and HeLa cell lysosome with LysoTracker Green (LTG)® having the structure as described herein. For the treatment group, HeLa cells were incubated with 30 μM of rhodamine-labeled (rh)-CA192 and 70 nM of LTG for 120 min. For the control group, HeLa cells were incubated with 30 μM of rhodamine-labeled (rh)-A192 and 70 nM of LTG for 120 min. Cells were then rinsed with warm HBSS three times, maintained in the fresh culture medium, and imaged by confocal microscopy. Images were acquired using a Zeiss laser scanning microscope 510 Meta NLO confocal imaging system equipped with Argon, red HeNe, green HeNe laser, and a Coherent Chameleon Ti-Sapphire laser (LSM) mounted on a vibration-free table (Carl Zeiss, Thornwood, N.Y.). All images were acquired using a Plan-Apochromat 63× Oil immersion lens with a working distance of 0.19 mm.

Substance: (Val-Pro-Gly-Ile-Gly): ELP monoblock library, SEQ ID NO: 63 (VPGIG)
- Tc [1]: 13.0 ± 0.6 °C
- n [1]: 760 ± 30 °C pentamers
- m [1]: 0 ° C./ln(μM)
- K [1]: −81.2 ± 7.9 °C pentamers/ln(μM)

Substance: (Val-Pro-Gly-Ser-Gly): ELP monoblock library, SEQ ID NO: 60 (VPGSG)
- Tc [1]: 63.6 ± 1.1 °C
- m [1]: −1.86 ± 0.31 ° C./ln(μM)
- K [1]: 0 °C pentamers/ln(μM)

Substance: (Val-Pro-Gly-Val-Gly): ELP monoblock library, SEQ ID NO: 62 (VPGVG)
- Tc [1]: 21.2 ± 0.9 °C
- n [1]: 1607 ± 90 °C pentamers
- m [1]: 0 ° C./ln(μM)
- K [1]: −163.1 ± 23.3 °C pentamers/ln(μM)

Substance: CA96C: 2nd generation carrier CypA-A96-CypA, SEQ ID NO: 8
- CsA loading ratio ([2]; FIG. 16): 127.5%

Substance: CA192: cyclophilin A fused to ELP A192, SEQ ID NO: 3
- Mass Fraction, Fraction 1 (Nano-aggregated form) ([3]; MALS): 10.1%
- Mass Fraction, Fraction 2 (Dimeric form) ([3]; MALS): 89.9%
- multimerized particles in solution ([3]; from CA192 concentration of both SEC fractions): 20.8 % by mass
- Transition temperature (Tt) [4]: 45.4 °C
- Slope, m ([4]; mean ± 95% CI, Table 2): 1.3 ° C./Log10(μM) and 1.3 ± 0.27 ° C./Log10(μM)
- Intercept, b ([4]; mean ± 95% CI, Table 2): 47.1 °C and 47.1 ± 0.39 °C
- stability of Rh ([5]; 37° C., up to 48 h): well maintained throughout 48 h; also recorded: no significant hydrodynamic radius shift; also recorded: stability over 2 days
- mean hydrodynamic radius (Rh) ([5]; DLS intensity, 20 μM): 64.8±0.7 nm
- CsA loading compared with a comparator [2]: significantly more drug than albumin
- transfer of CsA from CA192 to albumin (human albumin): No significant drug loss; also recorded: unable to extract CsA
- co-localization with lysosomes (HeLa cells): obvious co-localization with lysosome; also recorded: co-localized with lysosomes; also recorded: co-localizing with lysosomes

Substance: CV96: cyclophilin A fused to ELP V96, SEQ ID NO: 4
- Transition temperature (Tt) [4]: 31.2 °C
- Slope, m ([4]; Table 3): 4.4 ° C./Log10(μm)
- Intercept, b ([4]; Table 3): 36.8 °C
- CsA loading compared with a comparator [2]: higher loading ratio

Substance: dimerized CA192: dimeric fraction of CA192 isolated by size exclusion chromatography
- Transition temperature (Tt) [4]: 49.3 °C
- hydrodynamic radius (Rh) after SEC ([5]; 99.2% by mass of fraction 2): 6.5±0.1 nm
